Here are results for five molecules from paper PMC3650583, “Dissection of Pilus Tip Assembly by the FimD Usher Monomer” (Journal of Molecular Biology, 2013).

Data set [1] addresses FimD:FimC:FimH complex (Escherichia coli (uropathogenic)) (UniProt P30130). Kind of data set: AUC; sedimentation velocity of purified FimD:FimC:FimH at the higher concentrations (> 1 μM, up to 4.3 μM); 20 °C, 42,000 rpm, absorbance optics; 50 mM Tris pH 8.0, 150 mM NaCl, 1 mM EDTA, 0.05% DDM; c(s) by SedFit; Kd of usher dimerisation (dimer to monomers) estimated by integrating the monomer and dimer peaks at 4.3 μM.

Data set [2] has as its target FimG (Escherichia coli (uropathogenic)) (UniProt P08190). The data set can be described thus: donor strand exchange (DSE) assay, SDS-PAGE of the SDS-stable subunit:subunit product; 20 °C; 500 nM usher complex (acceptor subunit last in FimD:FimC:...) and 5 μM chaperone:subunit complex (donor), one subunit labelled with Alexa 647; quenched with HCl (quench flow for the fast reactions); fitted to Eq. (1) with KinTek Explorer.

The target of data set [3] is FimF (Escherichia coli (uropathogenic)) (UniProt P08189). The data set is described as above.
Data set [4] deals with FimH (Escherichia coli (uropathogenic)) (UniProt P08191). The data set is described as above.
Data set [5] addresses FimF^Q99C[A647] (Escherichia coli (uropathogenic)). Described as above.
Data set [6] addresses T1, FimF (Escherichia coli (uropathogenic), UniProt P08189 21-176).
T1 construct: also called unlabelled FimF; FimC:FimF (as chaperone complex)
T1 sequence: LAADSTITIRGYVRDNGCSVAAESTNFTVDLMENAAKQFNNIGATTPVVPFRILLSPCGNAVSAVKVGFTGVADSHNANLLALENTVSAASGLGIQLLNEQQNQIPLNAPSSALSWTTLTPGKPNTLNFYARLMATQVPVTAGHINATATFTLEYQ
Kind of data set: donor strand exchange (DSE) assay, SDS-PAGE of the SDS-stable subunit:subunit product; 20 °C; FimD:FimC:FimH:FimG and FimC:FimF both unlabelled; silver staining and densitometry of the FimH:FimG:FimF product. As to conditions: both partners purified.

Data set [7] concerns the molecule itself. The data set can be described thus: donor strand exchange (DSE) assay, SDS-PAGE of the SDS-stable subunit:subunit product; spontaneous (non-usher mediated) formation of FimG polymers from FimC:FimG during the slow reactions.
The target in data set [8] is T1, FimF. Kind of data set: donor strand exchange (DSE) assay, SDS-PAGE of the SDS-stable subunit:subunit product; 20 °C; 500 nM usher complex (acceptor subunit last in FimD:FimC:...) and 5 μM chaperone:subunit complex (donor), one subunit labelled with Alexa 647; quenched with HCl (quench flow for the fast reactions); fitted to Eq. (1) with KinTek Explorer. As to conditions: both partners purified.

Data set [9] concerns the molecule itself. Kind of data set: AUC; sedimentation velocity of FimD alone at 5 μM and 2 μM; 20 °C, 42,000 rpm; 50 mM Tris pH 8.0, 150 mM NaCl, 1 mM EDTA, 0.05% DDM; monomer to dimer.

Positions count from the first letter of the chain named. Names may count otherwise.

In general, Kd refers to the equilibrium constant for the complex coming apart. By stoichiometry N is commonly meant a count of units in the complex or per binding partner.

For “FimD:FimC:FimH complex (from UniProt P30130;P31697;P08191)”, the Kd in [1] is 20 µM.
As for FimF^Q99C[A647] (natural protein), the kDSE (rate of donor strand exchange, 20 °C) came out at 0.0527 s⁻¹ in data set [2], 0.00598 s⁻¹ in data set [3] and 0.972 s⁻¹ in [4].

B1: FimG (natural protein)
chain: ADVTITVNGKVVAKPCTVSTTNATVDLGDLYSFSLMSAGAASAWHDVALELTNCPVGTSRVTASFSGAADSTGYYKNQGTAQNIQLELQDDSGNTLNTGATKTVQVDDSSQSAHFPLQVRALTVNGGATQGTIQAVISITYTYS
notes: also called unlabelled FimG; FimC:FimG (as chaperone complex)
Take B1: the kDSE (rate of donor strand exchange, 20 °C) in data set [5] is 0.00543 s⁻¹. Besides, the binding result (with FimF [6]; in [7]) was “binds” each time.

B2: FimG^S92C[A647] (natural protein)
chain: B1 chain with S92C
modifications: fluorescent Alexa 647 label at position 92 (on S92C)
With B2, the binding result with FimF [8] was “binds”.

B3: FimD usher (natural protein)
chain: DLYFNPRFLADDPQAVADLSRFENGQELPPGTYRVDIYLNNGYMATRDVTFNTGDSEQGIVPCLTRAQLASMGLNTASVAGMNLLADDACVPLTTMVQDATAHLDVGQQRLNLTIPQAFMSNRARGYIPPELWDPGINAGLLNYNFSGNSVQNRIGGNSHYAYLNLQSGLNIGAWRLRDNTTWSYNSSDRSSGSKNKWQHINTWLERDIIPLRSRLTLGDGYTQGDIFDGINFRGAQLASDDNMLPDSQRGFAPVIHGIARGTAQVTIKQNGYDIYNSTVPPGPFTINDIYAAGNSGDLQVTIKEADGSTQIFTVPYSSVPLLQREGHTRYSITAGEYRSGNAQQEKTRFFQSTLLHGLPAGWTIYGGTQLADRYRAFNFGIGKNMGALGALSVDMTQANSTLPDDSQHDGQSVRFLYNKSLNESGTNIQLVGYRYSTSGYFNFADTTYSRMNGYNIETQDGVIQVKPKFTDYYNLAYNKRGKLQLTVTQQLGRTSTLYLSGSHQTYWGTSNVDEQFQAGLNTAFEDINWTLSYSLTKNAWQKGRDQMLALNVNIPFSHWLRSDSKSQWRHASASYSMSHDLNGRMTNLAGVYGTLLEDNNLSYSVQTGYAGGGDGNSGSTGYATLNYRGGYGNANIGYSHSDDIKQLYYGVSGGVLAHANGVTLGQPLNDTVVLVKAPGAKDAKVENQTGVRTDWRGYAVLPYATEYRENRVALDTNTLADNVDLDNAVANVVPTRGAIVRAEFKARVGIKLLMTLTHNNKPLPFGAMVTSESSQSSGIVADNGQVYLSGMPLAGKVQVKWGEEENAHCVANYQLPPESQQQLLTQLSAECR
notes: also called apo FimD; the usher; source: in 0.05% DDM
For B3, in data set [9], the “stoichiometry N” value was 2.
